Results published in patent publication US20220048996A1 (F STAR BETA, published 2022).
Numbering of substitutions follows the chain as printed. Values belong to the binder of their own block, whether it stands above or below them.

Legend:
hCD137-mFc-Avi = target: T1, hCD137-mFc-Avi (human); experiment: SPR, mAb^2 at 1 nM on CD137 against 1 µM on related receptors
T1 construct: Dimer; a biotinylated version was used where the text says so; also called human CD137-mFc-Avi; hCD137-mFc-Avi-Bio
Source text: CD137 and OX40 belongs to the tumour necrosis factor receptor superfamily (TNFRSF) of cytokine receptors (Moran et al., 2013).
Briefly, flow cells on CM5 chips were immobilised with approx. 1000 RU of either human CD137-mFc-Avi (Table 3), OX40-mFc (Table 2), recombinant human TNFRSF1A-Fc, recombinant human TNFRSF1B-Fc, recombinant human GITR-Fc, recombinant human NGFR-Fc, recombinant human CD40-Fc or recombinant human DR6-Fc. Flow cell 1 was left for blank immobilisation. The five mAb² were diluted to 1 μM and 1 nM in 1×HBS-EP buffer (GE Healthcare, product code BR100188), allowed to flow over the chip for 3 min and then allowed to dissociate for 4 minutes. A 30-second injection of 10 mM glycine pH 1.5 was used for regeneration. […] Binding levels were determined at the end of the association phase and compared.

[1] = target: T2, mouse OX40 expressed on DO11.10 cells (DO11.10-mOX40) (mouse, UniProt P47741 20-272); experiment: cell-based or functional assay
T2 sequence: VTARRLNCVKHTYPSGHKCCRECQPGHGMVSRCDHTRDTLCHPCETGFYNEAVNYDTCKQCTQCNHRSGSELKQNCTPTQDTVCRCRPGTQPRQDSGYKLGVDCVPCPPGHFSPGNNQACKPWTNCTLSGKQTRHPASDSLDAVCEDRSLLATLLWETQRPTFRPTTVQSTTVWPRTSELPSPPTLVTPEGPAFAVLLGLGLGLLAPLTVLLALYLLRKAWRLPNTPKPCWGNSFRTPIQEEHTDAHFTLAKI

[2] = target: T3, human CD137 expressed on DO11.10 cells (DO11.10-hCD137) (human, UniProt Q07011 24-255); experiment: flow cytometry on DO11.10 cells expressing the target
T3 construct: also called CD137 on human T cells
Method: (§1) 50 μl of the antibody dilutions were added to the wells containing cells (final volume 100 μl) and incubated at 4° C. for 1 hour. […] The plates were washed and resuspended in 100 μl of PBS containing DAPI (Biotium, cat no 40043) at 1 μg/ml. The plates were analysed using a Canto II flow cytometer (BD Bioscience) and the data analysed using FlowJo. Dead cells were identified by their higher fluorescence on the UV (405 nm/450/50) channel and excluded from analysis. […] The GMFI data was fit using log (agonist) vs response (three parameters) in Graph Pad Prism Software to generate EC₅₀ values.

[3] = target: T4, cynomolgus CD137 expressed on DO11.10 cells (DO11.10-cCD137) (cynomolgus monkey, UniProt Q07011 24-255 (human entry)); experiment: as above
T4 chain: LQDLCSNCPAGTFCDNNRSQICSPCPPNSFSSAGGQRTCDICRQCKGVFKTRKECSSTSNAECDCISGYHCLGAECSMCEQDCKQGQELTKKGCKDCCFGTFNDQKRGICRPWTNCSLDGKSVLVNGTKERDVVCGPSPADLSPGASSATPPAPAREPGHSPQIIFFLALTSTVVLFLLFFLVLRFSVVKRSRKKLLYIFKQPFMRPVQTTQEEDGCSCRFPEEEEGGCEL
Method: as §1

[4] = target: T2, mouse OX40 expressed on DO11.10 cells …; experiment: as above
Method: as §1, with “The binding affinity of the FS20m-232-91AA/Lob12.3 mAb² for cell-expressed mouse OX40 and CD137 was determined using flow cytometry. […] DO11.10-mOX40, DO11.10-mCD137, or HEK cell suspensions were prepared in PBS+2% BSA (Sigma, A7906) and seeded at 4×10⁶ cell/ml with 50 μl/well in V-bottomed 96-well plates (Costar, 3897). 50 μl” for “50 μl”, “volume 100 μl ) and incubated” for “volume 100 μl) and incubated”, “parameters) in GraphPad Prism Software” for “parameters) in Graph Pad Prism Software”

[5] = target: T5, mouse CD137 expressed on DO11.10 cells (DO11.10-mCD137) (mouse, UniProt P20334 24-256); experiment: as above
T5 construct: also called CD137 on mouse T cells
Method: as §1, with “The binding affinity of the FS20m-232-91AA/Lob12.3 mAb² for cell-expressed mouse OX40 and CD137 was determined using flow cytometry. […] DO11.10-mOX40, DO11.10-mCD137, or HEK cell suspensions were prepared in PBS+2% BSA (Sigma, A7906) and seeded at 4×10⁶ cell/ml with 50 μl/well in V-bottomed 96-well plates (Costar, 3897). 50 μl” for “50 μl”, “volume 100 μl ) and incubated” for “volume 100 μl) and incubated”, “parameters) in GraphPad Prism Software” for “parameters) in Graph Pad Prism Software”

[6] = target: T3, human CD137 expressed on DO11.10 cells …; experiment: cell-based or functional assay

T5 sequence (P20334 24-256): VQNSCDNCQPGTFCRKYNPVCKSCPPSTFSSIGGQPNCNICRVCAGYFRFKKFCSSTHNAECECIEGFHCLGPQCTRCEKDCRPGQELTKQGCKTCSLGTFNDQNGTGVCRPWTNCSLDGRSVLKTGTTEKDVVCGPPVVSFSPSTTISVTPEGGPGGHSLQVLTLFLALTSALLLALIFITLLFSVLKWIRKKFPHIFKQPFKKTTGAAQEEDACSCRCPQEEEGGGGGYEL
T1 sequence (chain, as listed by the source limits assumed): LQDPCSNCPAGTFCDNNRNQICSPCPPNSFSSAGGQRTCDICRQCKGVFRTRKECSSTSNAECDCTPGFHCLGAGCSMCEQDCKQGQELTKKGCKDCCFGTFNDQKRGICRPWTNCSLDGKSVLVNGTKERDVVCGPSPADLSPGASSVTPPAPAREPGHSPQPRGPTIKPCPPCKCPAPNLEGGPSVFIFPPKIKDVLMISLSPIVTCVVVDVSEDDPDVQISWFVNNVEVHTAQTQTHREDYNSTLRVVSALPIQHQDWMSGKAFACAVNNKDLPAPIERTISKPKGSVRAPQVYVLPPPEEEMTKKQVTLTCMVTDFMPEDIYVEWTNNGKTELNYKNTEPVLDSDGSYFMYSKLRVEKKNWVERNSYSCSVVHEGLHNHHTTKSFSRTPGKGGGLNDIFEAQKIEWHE

B5: G1AA/OX86 (antibody, human IgG1, kappa, L234A L235A, V domains shown)
VH: QVQLKESGPGLVQPSQTLSLTCTVSGFSLTGYNLHWVRQPPGKGLEWMGRMRYDGDTYYNSVLKSRLSISRDTSKNQVFLKMNSLQTDDTAIYYCTRDGRGDSFDYWGQGVMVTVSS
VL: DIVMTQGALPNPVPSGESASITCRSSQSLVYKDGQTYLNWFLQRPGQSPQLLTYWMSTRASGVSDRFSGSGSGTYFTLKISRVRAEDAGVYYCQQVREYPFTFGSGTKLEIKR
mouse pan-T cell activation assay, mIL-2 release EC50, crosslinked [1]: 2.41 nM

B6: G1/OX86 (antibody, human IgG1, kappa, V domains shown)
VH: B5 VH with T57I
VL: B5 VL
notes: also called G1/0X86; anti-mouse OX40 mAb OX86 in a human IgG1 backbone
EC50 [4]: 0.538 nM | binding result [5]: no binding

B7: G1AA/FS30-10-16 (antibody, human IgG1, kappa, L234A L235A, V domains shown)
VH: EVQLLESGGGLVQPGGSLRLSCAASGFTFSSYDMSWVRQAPGKGLEWVSDIDPTGSKTDYADSVKGRFTISRDNSKNTLYLQMNSLRAEDTAVYYCARDLLVYGFDYWGQGTLVTVSS
VL: EIVLTQSPGTLSLSPGERATLSCRASQSVSSSYLAWYQQKPGQAPRLLIYGASSRATGIPDRFSGSGSGTDFTLTISRLEPEDFAVYYCQQSYSYPVTFGQGTKVEIKR
CD8+ T cell activation assay, hIL-2 release EC50, crosslinked [6]: 3.88 nM

B8: FS20-22-49AA/FS30-10 (bispecific antibody, V domains shown)
VH: B7 VH with L101M
VL: B7 VL
notes: Parent mAb^2; derived by reversing the stated change
specificity for CD137 over TNFRSF1A, TNFRSF1B, GITR, NGFR and CD40 (fold) (hCD137-mFc-Avi): ~1000 fold

Second part, the binder after the results:

specificity for CD137 over TNFRSF1A, TNFRSF1B, GITR, NGFR and CD40 (fold) (hCD137-mFc-Avi): ~1000 fold
B1: FS20-22-49AA/FS30-35 (bispecific antibody, V domains shown)
VH: EVQLLESGGGLVQPGGSLRLSCAASGFTFSAYNIHWVRQAPGKGLEWVSDISPYGGATNYADSVKGRFTISRDNSKNTLYLQMNSLRAEDTAVYYCARNLYELSAYSYGMDYWGQGTLVTVSS
VL: EIVLTQSPGTLSLSPGERATLSCRASQSVSSSYLAWYQQKPGQAPRLLIYGASSRATGIPDRFSGSGSGTDFTLTISRLEPEDFAVYYCQQYYYSSPITFGQGTKVEIKR
notes: as for B8

mouse pan-T cell activation assay, mIL-2 release EC50, crosslinked [1]: 0.257 nM
B2: FS20m-232-91AA/4420 (antibody, human IgG1, kappa, L234A L235A)
heavy: EVKLDETGGGLVQPGRPMKLSCVASGFTFSDYWMNWVRQSPEKGLEWVAQIRNKPYNYETYYSDSVKGRFTISRDDSKSSVYLQMNNLRVEDMGIYYCTGSYYGMDYWGQGTSVTVSSASTKGPSVFPLAPSSKSTSGGTAALGCLVKDYFPEPVTVSWNSGALTSGVHTFPAVLQSSGLYSLSSVVTVPSSSLGTQTYICNVNHKPSNTKVDKKVEPKSCDKTHTCPPCPAPEAAGGPSVFLFPPKPKDTLMISRTPEVTCVVVDVSHEDPEVKFNWYVDGVEVHNAKTKPREEQYNSTYRVVSVLTVLHQDWLNGKEYKCKVSNKALPAPIEKTISKAKGQPREPQVYTLPPSRDELFDPMYYYNQVSLTCLVKGFYPSDIAVEWESNGEPLWDYKTTPPVLDSDGSFFLYSKLTVWRDRWEDGNVFSCSVMHEALHNHYTQKSLSLSPGK
light: DVVMTQTPLSLPVSLGDQASISCRSSQSLVHSNGNTYLRWYLQKPGQSPKVLIYKVSNRFSGVPDRFSGSGSGTDFTLKISRVEAEDLGVYFCSQSTHVPWTFGGGTKLEIKRTVAAPSVFIFPPSDEQLKSGTASVVCLLNNFYPREAKVQWKVDNALQSGNSQESVTEQDSKDSTYSLSSTLTLSKADYEKHKVYACEVTHQGLSSPVTKSFNRGEC

binding result [2]: no binding | binding result [3]: no binding | binding result [4]: no binding | binding result [5]: no binding
B3: G1/4420 (antibody, human IgG1, kappa)
heavy: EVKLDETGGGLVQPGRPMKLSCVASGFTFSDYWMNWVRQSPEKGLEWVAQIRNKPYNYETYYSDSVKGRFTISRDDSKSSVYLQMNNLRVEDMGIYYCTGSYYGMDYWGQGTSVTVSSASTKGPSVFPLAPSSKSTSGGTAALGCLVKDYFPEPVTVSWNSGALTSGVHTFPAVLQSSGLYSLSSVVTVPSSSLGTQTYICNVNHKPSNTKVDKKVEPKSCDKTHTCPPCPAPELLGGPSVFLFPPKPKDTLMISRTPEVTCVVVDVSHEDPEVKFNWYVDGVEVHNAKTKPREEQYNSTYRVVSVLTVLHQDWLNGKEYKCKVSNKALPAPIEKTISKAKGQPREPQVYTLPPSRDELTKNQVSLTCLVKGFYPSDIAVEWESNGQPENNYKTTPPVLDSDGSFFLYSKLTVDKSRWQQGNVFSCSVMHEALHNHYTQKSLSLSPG
light: B2 light
notes: also called anti-FITC antibody 4420 in IgG1 format; isotype control

binding result [5]: no binding
B4: FS20m-232-91AA/HEL D1.3 (antibody, V domains shown)
VH: QVQLQESGPGLVRPSQTLSLTCTVSGSTFSGYGVNWVRQPPGRGLEWIGMIWGDGNTDYNSALKSRVTMLVDTSKNQFSLRLSSVTAADTAVYYCARERDYRLDYWGQGSLVTVSS
VL: DIQMTQSPASLSASVGETVTITCRASGNIHNYLAWYQQKQGKSPQLLVYNAKTLADGVPSRFSGSGSGTQYSLKINSLQPEDFGSYYCQHFWSTPRTFGGGTKLEIKR
notes: also called OX40/HEL mock mAb^2
